Measured values taken from patent US5516685A, “Isolation and characterization of a novel protease from Streptomyces lividans” (Amgen Inc., priority 1994, dated 1996).
Read-outs that look alike come from different tables or passages of the source.

Tests used:
[1] = tested on: Protease X; assay type: biochemical, Streptomyces lividans; conditions: for effect of additive on the protease's activity: additive at 20 mM
Protocol: (§1) The characteristics of the protease reaction catalyzed by this enzyme were determined using the synthetic substrate assay where various synthetic substrates are dissolved at a concentration of 100 mg/ml in dimethylsulfoxide (DMSO). 200 μl aliquots from bacterial culture supernatants were mixed with 780 μl of 5 mM Tris, 25 mM NaCl, pH 7, and incubated at the desired temperature Digestions were then initiated by the addition of 20 μl of substrate and the rate of absorbance at 405 nm was followed for several minutes.
^a The assays were performed for 2 min. at 65° C. at pH 7.5.

[2] = synthetic substrate assay of protease-containing S. lividans (pHL45) broth; assay type: biochemical; conditions: for Activity (dA/min): control broth activity subtracted
Protocol: as §1
Here, the broth from recombinant S. lividans containing pHL45, as well as the broth from an identical S. lividans culture containing a control plasmid only (pIJ699), were compared for proteolytic activity by directly assaying activity in the presence of several different substrates. This experiment was conducted at 37° C. pH 7.0 and 65° C. pH 7 5, in the presence of 10 mM calcium. The substrates tested were: succinyl-ala-ala-pro-phe-pNitroanilide, succinyl-tyr-leu-val-pNitroanilide, ala-pNitroanilide, and leu-pNitroanilide. […] The temperature optimum for the proteolytic reaction was determined using succinyl-ala-ala-pro-phe-pNitroanilide in 10 mM Tris, 25 mM NaCl, pH 7.0.

[3] = tested on: azocasein; assay: azocasein assay; assay type: biochemical; conditions: longer incubation times
Protocol: After washing the column with buffer, the dialysed protein sample was loaded onto the column. The protein was eluted using a linear gradient of 0.0 to 0.5M NaCl. The eluate's A280 was monitored and 8 ml fractions were collected. […] Following the incubation, the assay reaction was terminated by the addition of 200 μl of 10% trichloroacetic acid and incubation at room temperature for several minutes. The solutions were then neutralized by adding 200 μl 0.2N NaOH to each sample. Samples were centrifuged 2 min. The supernatants were removed and the activity of the fractions was determined from the increase in absorbance at 420 nm.

[4] = tested on: proteins; assay: peptide mapping of the protease; assay type: biochemical; conditions: fragments generated during peptide mapping of the protease
[5] = 20 mM additive, 2 min. at 65° C. at pH 7.5, 0.170 without additive

Question: Which results are given for `[Ca+2].[Cl-].[Cl-]` [CaCl2]?
Answer: Protease activity (dA/min) in presence of additive ([1]; 5 mM additive, 2 min. at 65° C. at pH 7.5, 0.170 without additive): 0.235 dA/min; Protease activity (dA/min) in presence of additive [1, 5]: 0.251 dA/min; effect of additive on the protease's activity ([1]; 65° C., pH 7.5): enhanced

Question: Which “Protease activity (dA/min) in presence of additive” value ([1]; pH 7.5) does the source give for `O=C(O)CN(CCN(CC(=O)O)CC(=O)O)CC(=O)O` [EDTA, reference compound] here?
Answer: Its value is 0.120 dA/min.

Question: Which “Protease activity (dA/min) in presence of additive” value [1, 5] does the source give for `[Cl-].[Cl-].[Mg+2]` [MgCl2] here?
Answer: Its value is 0.250 dA/min.

Question: What about the “effect of additive on the protease's activity” value ([1]; 65° C., pH 7.5) of the same molecule?
Answer: The value was “appears to enhance”.

Question: What does the source list for `O=S(=O)(F)Cc1ccccc1` [PMSF, reference compound]?
Answer: Protease activity (dA/min) in presence of additive ([1]; 1 mM additive, 2 min. at 65° C. at pH 7.5, 0.170 without additive): 0.000 dA/min; effect of additive on the protease reaction ([1]; addition of PMSF, 65° C., pH 7.5): totally inhibited

B1: Protease X: novel protease [SEQ ID NO: 2] secreted into the culture medium by S. lividans (protein)
chain: MRITLPLLSTAVGLGLTAAVLGTGPAATAAAPQEPVRAAQLGYQPSAGSGEDAAANRAFFEAVVKSVAEKRAANPSAAAAVTVYYSATNAPSFRSQISRSAQIWNSSVSNVRLAESSSGADFAYYEGNDSRGSYASTDGHGSGYIFLDYRQNQQYDSTRVTAHETGHVLGLPDHYSGPCSELMSGGGPGPSCTNPYPNSTERSRVNQLWAYGFQAALDKALEKASQR
Question: For B1, which “temperature optimum for cleavage of succinyl-ala-ala-pro-phe-pNitroanilide” value ([2]; 10 mM Tris, 25 mM NaCl, pH 7.0) is on record?
Answer: Its value is 65 °C.

Question: And the “time for which catalytic rate remains linear” value ([2]; 65° C.)?
Answer: The value was “at least 2 min”.

Question: What about the pH optimum ([2]; 65° C. reaction) of the same molecule?
Answer: The pH optimum was 7.5 pH.

Question: And the “thermal stability of the activity” value ([2]; 70° C., initial catalytic rate very fast, enzyme apparently becomes denatured)?
Answer: The value was “activity drops off dramatically”.

Question: And the “Activity (dA/min)” value ([2]; Temperature 30.000, 10 mM Tris, 25 mM NaCl, pH 7.0)?
Answer: The value was 0.008 dA/min.

Question: And the “Activity (dA/min)” value ([2]; Temperature 40.000, 10 mM Tris, 25 mM NaCl, pH 7.0)?
Answer: Its value is 0.017 dA/min.

Question: What about the “Activity (dA/min)” value ([2]; Temperature 50.000, 10 mM Tris, 25 mM NaCl, pH 7.0) of the same molecule?
Answer: Its value is 0.042 dA/min.

Question: What about the “Activity (dA/min)” value ([2]; Temperature 60.000, 10 mM Tris, 25 mM NaCl, pH 7.0) of the same molecule?
Answer: Its value is 0.074 dA/min.

Question: And the “Activity (dA/min)” value ([2]; Temperature 65.000, 10 mM Tris, 25 mM NaCl, pH 7.0)?
Answer: The value was 0.085 dA/min.

Question: And the “Activity (dA/min)” value ([2]; Temperature 70.000, 10 mM Tris, 25 mM NaCl, pH 7.0)?
Answer: Its value is 0.047 dA/min.

Question: And the “Activity (dA/min)” value ([2]; no additive, 2 min. at 65° C. at pH 7.5)?
Answer: Its value is 0.170 dA/min.

Question: And the “proteolytic activity on substrate compared with control broth (pIJ699)” value ([2]; only substrate of four tested, 37° C. pH 7.0 and 65° C. pH 7 5, 10 mM calcium)?
Answer: Its value is “showed activity above that of the control”.

Question: What about the “Activity (dA/min)” value ([2]; pH 6.000, 65° C. reaction) of the same molecule?
Answer: Its value is 0.048 dA/min.

Question: What about the “Activity (dA/min)” value ([2]; pH 7.000, 65° C. reaction) of the same molecule?
Answer: Its value is 0.085 dA/min.

Question: And the “Activity (dA/min)” value ([2]; pH 7.500, 65° C. reaction)?
Answer: The value was 0.190 dA/min.

Question: And the “Activity (dA/min)” value ([2]; pH 8.000, 65° C. reaction)?
Answer: The value was 0.105 dA/min.

Question: And the “temperature optimum in the azocasein assay” value [3]?
Answer: Its value is 60 °C.

Question: And the cleavage site preference [4]?
Answer: The cleavage site preference was “preferentially processes proteins amino-terminally of tyrosine”.
